In paper PMC7142231, “α1-Microglobulin Binds Illuminated Flavins and Has a Protective Effect Against Sublethal Riboflavin-Induced Damage in Retinal Epithelial Cells” (Frontiers in Physiology, 2020):

Tests used:
[1] = molecular target: Cleaved A1M (~22 kDa band formed with illuminated riboflavin or FAD) (human); test: SDS-PAGE; 12% SDS-PAGE, samples reduced with 5% β-mercaptoethanol and boiled 1 min (similar results non-reducing); A1M with buffer or 40, 200, 1000 μM riboflavin or FAD, illuminated or in darkness 1 h at RT; Coomassie stain and Western blot
[2] = molecular target: the molecule itself; test: as above

Chain of Cleaved A1M (~22 kDa band formed with illuminated riboflavin or FAD) (domain or fragment) (P02760 20-352): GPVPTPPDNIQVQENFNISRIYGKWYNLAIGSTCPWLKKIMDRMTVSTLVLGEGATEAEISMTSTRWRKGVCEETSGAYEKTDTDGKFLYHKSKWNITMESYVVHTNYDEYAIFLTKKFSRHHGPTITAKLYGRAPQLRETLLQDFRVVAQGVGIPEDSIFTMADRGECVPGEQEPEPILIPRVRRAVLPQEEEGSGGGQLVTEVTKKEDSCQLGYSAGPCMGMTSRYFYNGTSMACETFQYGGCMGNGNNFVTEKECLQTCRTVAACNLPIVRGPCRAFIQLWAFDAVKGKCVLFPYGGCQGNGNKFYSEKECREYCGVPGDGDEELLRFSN

stoichiometry N [1]	Molecule	stoichiometry N [2]
2	Cleaved A1M (~22 kDa band formed with illuminated riboflavin or FAD) (domain or fragment)	–
–	Recombinant human α1-microglobulin (A1M) with an N-terminal His-tag (natural protein, UniProt P02760 20-203, looked up, human α1-microglobulin (A1M), the lipocalin cut from the AMBP precursor; construct as in Kwasek et al., 2007; also called recombinant A1M; not shown: His-tag, N-terminal, kept) GPVPTPPDNIQVQENFNISRIYGKWYNLAIGSTCPWLKKIMDRMTVSTLVLGEGATEAEISMTSTRWRKGVCEETSGAYEKTDTDGKFLYHKSKWNITMESYVVHTNYDEYAIFLTKKFSRHHGPTITAKLYGRAPQLRETLLQDFRVVAQGVGIPEDSIFTMADRGECVPGEQEPEPILIPRV	2
